Molecular target: human GITR (full length, on cells) (human) (UniProt Q9Y5U5)
Experiment: FACS dot plot, spleen cells of GITR humanized (B-hGITR) mice, FITC against mTcRβ PerCP [panel hIgG1]

Chain of human GITR (full length, on cells) (human) (Q9Y5U5 26-241): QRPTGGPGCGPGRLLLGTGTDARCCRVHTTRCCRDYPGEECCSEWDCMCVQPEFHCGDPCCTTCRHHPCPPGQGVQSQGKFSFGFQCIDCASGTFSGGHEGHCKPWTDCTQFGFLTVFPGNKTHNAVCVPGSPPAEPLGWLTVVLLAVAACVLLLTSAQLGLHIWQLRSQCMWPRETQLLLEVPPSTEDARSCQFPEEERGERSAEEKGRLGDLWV

FL3-H, FL1-H subset (percent of cells in the FITC-high, mTcRβ-positive gate): 1.08%
Substance: isotype control IgG (antibody)

Reference: patent US20220119541A1
